From patent publication KR20220012314A (dated 2022)
Where “and” joins values, the source holds several entries; their conditions need not be identical. Identical values can stand only once.

B1: 마우스 항-BCMA 단일클론 항체 B1A1 (antibody, V domains shown)
VH: DVQLQESGPGLVKPSQSLSLTCSVTGYSITSAYYWNWIRQFPGNKLEWMGYIRYDGSNNYNPSLKNRISITRDTSKNQFFLKLNSVTAEDTATYYCAPYDYDEVFAYWGQGTLVTVSA
VL: DIVMTQSHKFMSTSVGDRVSITCKASQEVSTAVAWYQQKPGQSPKLLIYWASMRHTGVPDRFTGSGSGTDYTLIITSVQAEDLALYYCQQYYSTPLTFGAGTKLELK
B2: BCMA 벤치마크 (GSK2857916의 BCMA-결합 부분을 함유하는 항체) (antibody, human IgG1, kappa, V domains shown)
VH: QVQLVQSGAEVKKPGSSVKVSCKASGGTFSNYWMHWVRQAPGQGLEWMGATYRGHSDTYYNQKFKGRVTITADKSTSTAYMELSSLRSEDTAVYYCARGAIYDGYDVLDNWGQGTLVTVSS
VL: DIQMTQSPSSLSASVGDRVTITCSASQDISNYLNWYQQKPGKAPKLLIYYTSNLHSGVPSRFSGSGSGTDFTLTISSLQPEDFATYYCQQYRKLPWTFGQGTKLEIKR
notes: also called BM; BCMA-mab1

What was measured:
[1] = target: T1, 인간 골수종 세포주 U266 표면의 인간 BCMA (human, UniProt Q02223 1-184); experiment: flow cytometry on U266 cells
T1 construct: whole, on cells; also called U266 세포; FACS 세포 결합
T1 sequence (looked up): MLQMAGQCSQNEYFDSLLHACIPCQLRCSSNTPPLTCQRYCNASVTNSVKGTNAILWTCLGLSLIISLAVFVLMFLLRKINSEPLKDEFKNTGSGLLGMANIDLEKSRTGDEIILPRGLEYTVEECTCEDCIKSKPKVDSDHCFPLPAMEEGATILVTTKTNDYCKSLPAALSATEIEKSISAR

[2] = target: T2, 재조합 인간 BCMA-his 단백질 (Cat#BCA-H522Y, 아크로 바이오시스템즈) (human, UniProt Q02223 1-54, biotin-labelled in the capture ELISA and the benchmark-blocking ELISA); experiment: competition ELISA: BCMA-his coated, antibody titrated, then biotin-labelled human BAFF-Fc 0.25 nM; competitor BAFF-Fc
T2 construct: Bought protein, MW 7.8 kDa as printed; not shown: his tag
T2 sequence: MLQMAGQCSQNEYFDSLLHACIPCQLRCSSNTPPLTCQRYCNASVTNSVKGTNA

[3] = target: T2, 재조합 인간 BCMA-his 단백질 (Cat#BCA-H522Y, 아크로 …); experiment: SPR (Biacore T200), antibody captured on chip, human BCMA-his in flow, 1:1 Langmuir fit
[4] = target: T2, 재조합 인간 BCMA-his 단백질 (Cat#BCA-H522Y, 아크로 …); experiment: capture ELISA: antibody captured on plate, biotin-labelled human BCMA-his 0.28 nM in solution
[5] = target: T3, 사이노몰거스 원숭이 BCMA-Fc 단백질 (아크로 바이오시스템즈, Cat#BCA-C5253) (cynomolgus monkey, UniProt A0A2K5UD97 1-53); experiment: SPR (Biacore T200), antibody captured on chip, cynomolgus BCMA-Fc in flow, 1:1 Langmuir fit
T3 construct: also called 사이노몰거스 BCMA-Fc; 사이노몰거스 BCMA; not shown: Fc tag

[6] = target: T2, 재조합 인간 BCMA-his 단백질 (Cat#BCA-H522Y, 아크로 …); experiment: competition ELISA: BM coated, antibody titrated and premixed with biotin-labelled human BCMA-his 0.22 nM; competitor BM
[7] = target: T2, 재조합 인간 BCMA-his 단백질 (Cat#BCA-H522Y, 아크로 …); experiment: capture ELISA with biotin-labelled human BCMA-his
[8] = target: T2, 재조합 인간 BCMA-his 단백질 (Cat#BCA-H522Y, 아크로 …); experiment: SPR (Biacore), human BCMA
[9] = target: T3, 사이노몰거스 원숭이 BCMA-Fc 단백질 (아크로 바이오시스템즈, …); experiment: SPR (Biacore), cynomolgus BCMA
[10] = target: T2, 재조합 인간 BCMA-his 단백질 (Cat#BCA-H522Y, 아크로 …); experiment: competition ELISA: BM coated, antibody titrated and premixed with biotin-labelled human BCMA-his; competitor BM (self)
[11] = target: T2, 재조합 인간 BCMA-his 단백질 (Cat#BCA-H522Y, 아크로 …); experiment: competition ELISA: BM coated, antibody titrated and premixed with biotin-labelled human BCMA-his 0.22 nM; competitor BM (self)
[12] = target: T2, 재조합 인간 BCMA-his 단백질 (Cat#BCA-H522Y, 아크로 …); experiment: competition ELISA: BCMA-his coated, antibody titrated, then biotin-labelled human BAFF-Fc; competitor BAFF-Fc

T3 sequence (A0A2K5UD97 entry or part of it): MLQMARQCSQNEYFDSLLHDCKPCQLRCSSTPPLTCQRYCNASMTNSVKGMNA

Binder	EC50 [1] [nM]	IC50 [2]	Kd [3] [nM]	koff [3] [s⁻¹]	kon [3] [M⁻¹ s⁻¹]	EC50 [4]	Kd [5] [nM]	koff [5] [s⁻¹]	kon [5] [M⁻¹ s⁻¹]	IC50 [6] [nM]	EC50 [7]	Kd [8] [nM]	Kd [9] [nM]	IC50 [10]	IC50 [11]	IC50 [12]
B1	2.66	7 nM	0.636	0.00161	2.45e+06	1.06 nM	9.08	0.0148	1.63e+06	1.91	–	–	–	–	–	–
B2	–	9.61 nM and 10.7 nM	0.742	0.000245	330000	1.27 nM and 1.11 nM	–	–	–	–	0.71 nM and 0.93 nM	0.742	0.599	2.23 nM and 1.64 nM	1.93 nM and 2.64 nM	3.64 nM and 3.59 nM
